Measured values: the supplement of paper PMC12636428

Test system: Saccharomyces cerevisiae
Experiment: transcriptional activation domain activity (GFP:mCherry ratio, weighted mean of sorted bins, harmonized to initial dataset scale) (arbitrary fluorescence ratio units); higher = stronger transcriptional activation
Conditions: beta-estradiol 1 µM; induction time 4 h
In short: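 Yeast diploids with a GFP reporter received barcoded protein tiles, fused to an estradiol-inducible synthetic transcription factor, at the URA3 locus. Cultures were diluted 1:5 into SC holding 1 uM beta-estradiol, incubated 4 hours at 30 °C, sorted into 8 bins on GFP:mCherry ratio, and sequenced for barcodes, with tiles under 50 reads discarded. Activation activity values come from the read-weighted mean of bin median fluorescence, averaged across barcodes and linearly placed on the initial dataset scale.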

| Sequence | transcriptional activation domain activity |
| --- | --- |
| IAPCGSWTPYTCLILGSIISLFIDFDVFAPFSYRGFITSYFGLAWFWFMFLFW | 56200 |
| MCINMYFWKVFFMWTLIFFGLSYIPLSFPGMSYFCLLQHKVFLIILGNHFLRF | 56800 |
| VVGISCCFLCMIVILLYFFPLLLFSSLRPLIYLVELLPLTCHIALGGSLYLTL | 77600 |
| KFYARILKLLLLLNHILIIAGVNESPYSKDKVIRYLFNMFRLWTTKRSAKENQ | 62000 |
| NFDWWAKYNCESLRDAVIGFLTRDCLDSRVGYFRSVVRWIGCRLYFGLLIIFF | 72700 |
| AAKGKAAAGGGTKKKGTAGAEAETPEMATPAPEGAPNAPAKKRAKKATAAAAA | 36400 |
| KFNNRLSSDSTSPIKYEADVSAGGKISEDNSTKGSSKESSAIADELDWLKFGI | 40600 |
| SAPAPVRVVSLTKEEPVPEVKEEVKEEVKPAPAAAAPKPKPAAAKKETPAAVK | 13400 |
| SFSSIIILLALCLVLLAVFFYFPFFFCLFCPYVLCCHPIFPPTLSQVSILAYY | 44700 |
| TPSTCLSFLPFFPLLLPLFFSFPLSLIFFLCNFSFQFFFSSCFLSFYLFVVSF | 66100 |
| ILMLFLGCLVICDLAFNIIVTILAFTTGFTHLLLSLVPTIPPPNCFLVHWQNH | 54600 |
| DKNYNNLTVYNFVYLFGGRVHLYKNLTFHVVVTYVCVISSIVFFLVFIAKWYW | 52100 |
| NVRYITNLSFTSDSVYKFLLFYPLFLIMTEPIIQLLGIYLAYIYGLIYLILTS | 55800 |
| RDNESYSATNNNNLLRPDDNDYNNEALSDIDRSFEDIINGRKLKLKKSRRRSS | 15300 |
| NRWMMATFMSGCVGALVYFFYKLVKVVMLKSTPSFVSIWKSLTTFSIIAIFLL | 37200 |
| KGKGKGKEGKGKGRREGEGGRGTEGREMGEKEREEEREEEREGKEGRREGGKE | 24100 |
| ARQGVGMMQSNVVFFFFFSFSFLFLFFFFSFSFLFLFFFPFSIIPTCSSLAVF | 44800 |
| GATSTDHQHHHHRIQFHSHKPNRNNIVNNSGISAANTTADLTNNDLNDLISRE | 31400 |
| IGSYYGKHELYEEVRAQDKILYCTLVLPFVYFLMFLWIWYYLYCFRFFGFFYA | 22000 |
| SKRAQDPLRIWDAMIDVHVHLPAGAQKKDGPSAGVAMVIVCAIVSLLTGKCVP | 46600 |
| KLEYVSLGRIEIVACFDKYTMASKGIHMLLGCCFSKIKFVCLSQADYQAAVLL | 67100 |
| AVVVTVWKLCDHPVMAWILGLIRCLTKKLKEVRQCKEELKQFFRDVVCKIEIA | 39000 |
| MIIIDIFLSIYMILSYLYLHLFIFHVHMNPSYFIYFLAFSVKEIFIVSWFFFI | 57300 |
| YLEWLLLHHIHTIVGRRKDINWHIVCMDRWNIWYNTLRLSDTFALVGIIISIF | 58500 |
| STQCSCEDESCPCVNCLIHRSEEELNSYIQQSGVPLTNIGEAQITDKMMDYLD | 56900 |

| Sequence | transcriptional activation domain activity |
| --- | --- |
| EGSEEKKERSRRHGDSDRRERRRHRSGSRSRDHDRDRERRHRRHRRSRSRDKE | 13400 |
| MCCLLVVLVALSGVGDFFFFSLLLLLLLLERGGVFFLFWLFFFYLFILFFHRG | 57000 |
| LSKRPGKPPARPSPQAAVQRRSFHATSSALASKDPYKTLGVGKSASASEIKKA | 39500 |
| GEGEGEVEAEVPTAAANEPVLEVQPKEPEPEAPAQPQQQPAAVKTTRPAPVSH | 28800 |
| EARTLVMHAQQGFSFHFGCQMSLSGMMLLSYILLLPPIFTGYQLLWLLWIVFP | 61400 |
| CRLLSSSVFLFSFFPFFLFFFYCLLVFFAWFLILRGCFVVHCLCKFGYDWTGG | 30300 |
| ESSEEDEEGGEGEGRKAKRNRMALSCKECKRRKIKCDRAMPSCGPCSKRGASS | 27200 |
| FRYLSYSKWLILALYINSWAYVVLSMLLVYVVSASRKGRWRSASYRFHMILLS | 64100 |
| FCMLNHWYARSWGTYLWLGLLLTDLDVTYKYKKWLYAHPGTYYPLLTFAWLCV | 63000 |
| PYLFIIRLLRLYKLPLIFMTSPVYIKTLKMMQNALGIGQTVAVIFPLTFWFCI | 27600 |
| RGVEKLKVEVGCFFWILGEGMIADERLKKFMKDMAHARHVVSSPDVCPNIITY | 40800 |
| APDAKTVLPIPELDDAVVESFFSSSTDSTPMFEYENLEDNSKEWTSLFDNDIP | 137000 |
| MLLLPLSFPFLSFPFLSFPFLSFPFLSSPFLSLVFSVLVLFFIFLLLLLLLLL | 34900 |
| NTDTYILFLFPFFWASNWFYTYQQNCYQLFYFNLRGRTFTNLWYWLAQIFGAL | 72900 |
| LPLLHRELFLKKYFEPIYGPWNPNIALASDQTGINSAFEIPITSAFSAHTEPK | 41700 |
| AAGETVHFSARAEVLTSKFGRTSKLSPRFIILTEKAVYILLAAARDGRVVVQL | 37700 |
| SMHCGVVPCCFFVCLCLISFVYLEISIIFLGHSFFLSLSFFYIMNLFYTWWVS | 25200 |
| MATAEPTKKRGRPKKVVLVEESAGNAEAVVAEVVKKTTTKKTSTKAPAAPVTT | 40300 |
| FQTIHVDASCIGIASPLVHVELQPDLCGRKFPELIGIDLTAATLVRLLSLLCL | 43000 |
| IPIQLGCMHLHSPWMTYALLYQLIYPMMMIYNLVNCIYFGTGTQMLWWMVSIV | 73000 |
| RSTMKIVEEEDQRRRAIRKTCCALCGREEGVSLRCKRCKTVLYCSPSVRGCQL | 33200 |
| MVSMQLSKLFIFSRVRRGGFFFCPCFSLVFLLFLFCIFFFHHFFSFHISFYLP | 41400 |
| EEEVEEKKAKKEKKSKEDKEDKKAKKDKKSKKDKSKDADEDVERTNGHSTPAA | 26100 |
| LRLVYCQVKKKKYKSINRYVAIHELSYNVMIWRFLAIYHSSQRLKWSIFLLSF | 42100 |
| KPLSIILGLVNVFVLYNYLSTGVSLWMISLRFSSFSCRFLADVFSCLLVFLLC | 60600 |

| Sequence | transcriptional activation domain activity |
| --- | --- |
| SQLPSLRLFNSYLALWAIGLISIMLFLLIATWHYARVDWQMQVLAVHHVLNLS | 34800 |
| IMTLFYSAQRHLNKLILATKIAAGVWPPPDAMAQLRFQIGQLLIFMQTFVSQC | 67400 |
| VYCELVSFLVLSSKKSDTKLLIQLERVARYISQLLFVESDAITMTSGISVLRP | 37500 |
| ALDFGLVVRHTTVQYPVPLRFGLLNGNFSFMPLIINSWNMISYILSIYSLVLL | 64200 |
| MLNLSYPFVLFILVPLILIPTCFCPFFVGPSYMSFCLSWLLPLFSFLPLLMLM | 50300 |
| SYLHSFLLSFLYPPSPLVSSPFTLLCSFPYFFSFLSFFFSFSFPYSSSCFVFH | 45000 |
| SQWRGVVALKLQIVKTLMKIRMVFPGLMTGLSLEYFSVIWTELNNALPIYLNF | 48000 |
| SRRAHSSDRDEARSARRRGRDRSRSRNRSRSWSRHRHRHRSHSRDAPAAAAAR | 22600 |
| HIDSFLDQMCKVAEGGGFSLSTLADCVILFRDLARIYQEPFSSPFLRLLYAYT | 65300 |
| EILHLMVDRDLFLLLAIDGIMCLATSFGFLLQKAIVHDCLTWNGSGWIIQSLW | 68500 |
| PRQMCRLYRAGYGLFYNQFCAYIDIAFCMMLCQWNLDILETLRYRLEFGRYLA | 71100 |
| NAPTADTDIATNLGKERNENFGMLNYNYEALLHFNDEHFNELNSIDPALISKY | 107000 |
| GRHFLAGVLEGLPYVMPLFAPTVNSYKRLVENFWAPVTVSWGLEHRIASIRLI | 32600 |
| YILSSLVTYKGIINHNDQSILILGIPKLHRLLMENVHVLHLLINSCITTLASC | 44000 |
| MFISICICSPYFQGCLAHTFYLFFYWGYLDCSLPPLVLQQRLLLWLLFDSFFI | 46000 |
| PKADGDAEPKPKAPRGTKRKAAEETNGAEEGGEAPAAKKAKPASKAKPASKAA | 16400 |
| YEASNHPEFDLNADVGLVIQVLEQTHSHTPIKLCSLIVKLQVVSGFLSYLESD | 32800 |
| MGLWARFFCFVIVCFQITFLYCLFSFSPSFLDLQKTQPLFFTFFFFCSFPSFP | 44200 |
| MVLPYVLFNNTRQLLKVWYESLKAIVLLYQKIKIIFRYIFMYTLASLLLLFYF | 45300 |
| NLMIIVLVVSNLRLMIENYRKYGVLICIQCHDYRQQDILYGLILYLLVPCHLF | 39400 |
| DPPPHPSCPPGSLIIKMVVYLRRRRLLVTWCEDPSVPEVRCLVVATQSQWVPM | 55300 |
| EKDKGEPADGAAAPVVKRKRGRPPNKDRNKPPPAPAPAPPPAGASASTPASRL | 33400 |
| APPAAAAAAAAAPAKKAKKAKKAKKAGLLQKAKKAKKAKKAKKAAAAAAAPAA | 8130 |
| EYFYYKMLAPSAATVFYVYVGLIKMSIALFNIRLTTLTTKLWGNVNWAFFVIC | 63000 |
